Earlier results as cited in PMC2721158.

Assays:
[1] = biological target: cyclic HPQ peptide … (synthetic construct)
[2] = biological target: linear HPQ peptide FSHPQNT (synthetic construct); experiment: titration calorimetry
[3] = biological target: linear peptide HDHPQNL (synthetic construct); experiment: titration calorimetry

Sequence of streptavidin (P22629 25-183): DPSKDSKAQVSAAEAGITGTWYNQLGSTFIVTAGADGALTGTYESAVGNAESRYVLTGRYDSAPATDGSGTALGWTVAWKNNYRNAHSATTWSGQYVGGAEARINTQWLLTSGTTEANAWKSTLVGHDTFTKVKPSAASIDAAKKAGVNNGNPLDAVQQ

streptavidin (from UniProt P22629)
Kd [1]: 0.23 µM
Kd [2]: 126 µM
Kd [3]: 282 µM
